Test results published in PMC5995566 (Biochemistry, 2017).

Target: T1, human S100A5 (human)
T1 sequence (P33763 1-92, looked up): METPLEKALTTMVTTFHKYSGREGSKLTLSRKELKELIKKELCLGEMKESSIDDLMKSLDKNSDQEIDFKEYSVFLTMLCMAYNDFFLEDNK
Experiment: ITC

RRLLFYKYVYKR [12 amino acid fragment of the protein NCX1] gave a Kd of 18 ± 4 µM and a dH of -3.6 ± 1 kcal/mol.
